From the supplement of paper PMC9170038

System: K4 kissing-loop RNA reporter
Test: apparent KD of K4 kissing-loop reporter; higher = weaker reporter binding
Settings: Eterna round: R107
Procedure: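 RNA-MaP round R107: designed RNA switches with theophylline, tryptophan, arginine or FMN aptamers are transcribed on-chip within common flanks. They are titrated with a labelled K4 kissing-loop RNA reporter in RNA-MaP buffer (100 mM Tris pH 7.5, 80 mM KCl, 4 mM MgCl2), without ligand or with the indicated ligand. Median apparent KD per design.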

[1] = input ligand: theophylline 20 uM
[2] = input ligand: tryptophan 2.4 mM
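Note: bound reporter read as fluorescence of individual clusters on recovered sequencing chips by microscopy, with normalized cluster intensities fitted with a binding model.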

Sequence | apparent KD of K4 kissing-loop reporter (input ligand: FMN 200 uM) | apparent KD of K4 kissing-loop reporter (input ligand: arginine 13.2 mM) | apparent KD of K4 kissing-loop reporter (input ligand: none) | apparent KD of K4 kissing-loop reporter [1] | apparent KD of K4 kissing-loop reporter [2]
GAGUGGCAGACGGCCGCCACUCUUAGCAGCCAGCGGAGUGAUGUUCCGCCCGAGUGAUGUUCGGAGAGGACCGGGUUUGUUGUAA [Exclusion Tryptophan B GF 29] | 119 nM | 146 nM | 146 nM | 149 nM | 125 nM
UCGGACCCUGGAGGAUAUGAGUCGAGUGAUGUUUGGCGGUCCAUGCCGGUGCGGCGUUAUGCCCUUUUAGAAGGCCAGGGUCCGA [#2 Exclusion - FMN B Attempt #13 (HarryS)] | 287 nM | 182 nM | 307 nM | 351 nM | 289 nM
UUUGGUUUCUCGGCCGCCACUCGUUGUCUAUCGGCUUCAGGGAUAUAGUGAUGUUAUGUAUAGAAGAGGACCGGGAGAAGGUUCU [ExTryptoB.Dx] | 280 nM | 267 nM | 347 nM | 307 nM | 182 nM
UUUAAACAUAGUGAUGUUAUGUAACAAUGACGAGGACCGGUACGGCCGCCACUCGAGAGAGAUGAUGGUAAAAUAAAUAAUUUUC [#10 K4 Tryptophan A Same State] | 105 nM | 124 nM | 107 nM | 113 nM | 90.6 nM
AAGUGAUGUUGUAGUGAUGUUGUGAUGUUGCAGGAUAUAUAGUGAUGUAGAAGGGUAUGUGCAGUUUUCAUAUUUGAGUGUUGAU [mkkhmullin] | 85.2 nM | 37.6 nM | 67.1 nM | 56.5 nM | 64.2 nM
UCCUGCAAUCGGCCACGAAAGUGGAUGGAUACCAGAGUCGAAAGACUCCCUUGGCAGCCAGUGAUGUUGGAAGCAGGUAAAUAAA | 838 nM | 499 nM | 470 nM | 538 nM | 505 nM
UAGUCCUAGUGAUGGUUAUCACGUGGUGGGCGAGGACCGGUACGGCCGCCACUCGACUUUGCAGUGAUGUUGCAAUCCGGACAAU [Exclusion - Tryptophan A (Freestyle 17)] | 194 nM | 215 nM | 240 nM | 224 nM | 258 nM
CCUAUCUCAUACGAUACCAGUCUACGAUAUUUUAUCGUUGCCAACACCGAGUGAUGUUCGGACCCUUGGCAGCGUAUGGGAUAGG [#03 K4 Theophylline B Exclusion] | 159 nM | 129 nM | 143 nM | 138 nM | 136 nM
ACGUAGCAGGCGGCCGCCACUCCGCAUAUGGAUCUCGAGUGAUGUUUGAGGGUGCCCAUCACAGCGAGGACCGGGCCAAUUAAGC [theeternabot_sameState_KL_Trp_B_10] | 86.2 nM | 105 nM | 127 nM | 179 nM | 254 nM
GGUAGCAUGGCGGCCGCCACUGUCUAGUGAUGUUAGACCCGACGUGGAUUCAAGACAGUCGGAAACAGGACCGGGCCAUGCUACC | 390 nM | 229 nM | 330 nM | 163 nM | 179 nM
CGUUUAUAGCAGGAUACCAGUACCCAUAAAGUACGUUAAUAGUAGAGUGAUGUUCUGAAGUACCCUUGGCAGCUUCCGGUAAGUG [#25 K4 Theophylline B Exclusion] | 163 nM | 342 nM | 239 nM | 298 nM | 134 nM
UGUAUGUGAUUUGAUACCAGACCAGCUGGAGGAAUCUGAGUGAUGUUCAGGUAGGUUUGGGUCCCUUGGCAGCAAAUCGCAUACU [KL-SSTheoB17] | 251 nM | 196 nM | 236 nM | 192 nM | 209 nM
GGUGCUGUCUGUGCCGCCCUCCUCGUUCCUCGAGGACCGGUACGGCCGCCACUCGAGUGAUGUUUGGGUAGCGAUCCCUGCUAGC [Bdazzled - #16 Exc. Tryptophan A] | 792 nM | 719 nM | 1060 nM | 801 nM | 696 nM
GCUAUGGUAGGAAGGAGCGCUGCGUUGUUUUUACGAGUGAUGUUCGGAAGCGGCGUGUUAAAGCAGGUAGGUCGCCUACUAUAGC [Arginine B K4 24] | 162 nM | 135 nM | 184 nM | 172 nM | 154 nM
UAUCAGAUUACUGAUACCAGUCUAAAGACAGUGAUGUUGUCUGAUCGACCACGAUCCAAGGACCCUUGGCAGCAGUGUACUAUUC [#30 K4 Theophylline B Same State] | 177 nM | 183 nM | 194 nM | 205 nM | 191 nM
GUUUCUUGGAAACAAGGACCGCUAACCGAAGGAGCGAGUGAAAACUCAGGUAGGUCGCGGUAGCGGAGUGAUGUUCCGCGUUUAC [Excluson Arginine A GF 15] | 91.3 nM | 129 nM | 123 nM | 150 nM | 99.8 nM
GGGCGCGGCGCGGCCGCCACUGGGCCUGGGCGCGCGCCGAGUGAUGUUCGCCUGCGGCUGGGUCGUAGGACCGGGUGCCGGCUGG [BDazzled 1] | 422 nM | 202 nM | 311 nM | 376 nM | 188 nM
